From PMC12691643

What was measured:
Experiment in all cases: affinity purification with mass spectrometry; HA-tagged TgWIP variants pulled down by the HA tag from lysates of DC2.4 cells infected 4 h at MOI 7; host partners by mass spectrometry; values are negative fold changes in peptide counts of the mutant immunoprecipitations relative to TgWIP^WT
[1] = target: TgWIP^Y150A/Y199A, HA-tagged (Toxoplasma gondii)
[2] = target: TgWIP^(PRR2 mut), HA-tagged (Toxoplasma gondii)
[3] = target: TgWIP^(PRR3 mut), HA-tagged (Toxoplasma gondii)
[4] = target: TgWIP^(WIRS mut), HA-tagged (Toxoplasma gondii)

Molecule “Wasf2 (Wave2), endogenous in murine DC2.4 cells (from UniProt Q8BH43 1-497) (natural protein)” has a negative fold change in peptide counts relative to TgWIP^WT [1] of 2 fold, a negative fold change in peptide counts relative to TgWIP^WT [2] of 3 fold and a negative fold change in peptide counts relative to TgWIP^WT [3] of 15 fold. The negative fold change in peptide counts relative to TgWIP^WT [4] was 3 fold.

“Abi1, endogenous in murine DC2.4 cells (from UniProt Q8CBW3 1-481) (natural protein)” gave a negative fold change in peptide counts relative to TgWIP^WT [1] of 2 fold, a negative fold change in peptide counts relative to TgWIP^WT [2] of 4 fold and a negative fold change in peptide counts relative to TgWIP^WT [3] of 6 fold. It also gave a negative fold change in peptide counts relative to TgWIP^WT [4] of 4 fold.

Work on “Cyfip1, endogenous in murine DC2.4 cells (from UniProt Q7TMB8 1-1253) (natural protein)” yielded a negative fold change in peptide counts relative to TgWIP^WT [1] of 1 fold, a negative fold change in peptide counts relative to TgWIP^WT [2] of 2 fold and a negative fold change in peptide counts relative to TgWIP^WT [3] of 5 fold. The negative fold change in peptide counts relative to TgWIP^WT [4] was 2 fold.

Molecule “Lrrk1, endogenous in murine DC2.4 cells (from UniProt Q3UHC2 1-2014) (natural protein)” has a negative fold change in peptide counts relative to TgWIP^WT [1] of 1 fold, a negative fold change in peptide counts relative to TgWIP^WT [2] of 3 fold and a negative fold change in peptide counts relative to TgWIP^WT [3] of 3 fold. The negative fold change in peptide counts relative to TgWIP^WT [4] was 1 fold.

For “Pstpip1, endogenous in murine DC2.4 cells (from UniProt P97814 1-415) (natural protein)”, the negative fold change in peptide counts relative to TgWIP^WT [1] was 1 fold, the negative fold change in peptide counts relative to TgWIP^WT [2] was 8 fold and the negative fold change in peptide counts relative to TgWIP^WT [3] was 5 fold. It also gave a negative fold change in peptide counts relative to TgWIP^WT [4] of 1 fold.

In the case of “Shp1 (Ptpn6), endogenous in murine DC2.4 cells (from UniProt P29351 1-595) (natural protein)”, the negative fold change in peptide counts relative to TgWIP^WT [1] is reported as 32 fold, the negative fold change in peptide counts relative to TgWIP^WT [2] is reported as 3 fold and the negative fold change in peptide counts relative to TgWIP^WT [3] is reported as 3 fold. For the same molecule, the negative fold change in peptide counts relative to TgWIP^WT [4] was 2 fold.

“Cyfip2, endogenous in murine DC2.4 cells (from UniProt Q5SQX6 1-1253) (natural protein)” was tested, and the negative fold change in peptide counts relative to TgWIP^WT [1] was 2 fold, the negative fold change in peptide counts relative to TgWIP^WT [2] was 3 fold and the negative fold change in peptide counts relative to TgWIP^WT [3] was 5 fold. It also gave a negative fold change in peptide counts relative to TgWIP^WT [4] of 2 fold.

“Grb2, endogenous in murine DC2.4 cells (from UniProt Q60631 1-217) (natural protein)” showed a negative fold change in peptide counts relative to TgWIP^WT [1] of 4 fold, a negative fold change in peptide counts relative to TgWIP^WT [2] of 6 fold and a negative fold change in peptide counts relative to TgWIP^WT [3] of 3 fold. The negative fold change in peptide counts relative to TgWIP^WT [4] was 2 fold.

“Nck2, endogenous in murine DC2.4 cells (from UniProt O55033 1-380) (natural protein)” was tested, and the negative fold change in peptide counts relative to TgWIP^WT [1] was 1 fold, the negative fold change in peptide counts relative to TgWIP^WT [2] was 1 fold and the negative fold change in peptide counts relative to TgWIP^WT [3] was 3 fold. It also gave a negative fold change in peptide counts relative to TgWIP^WT [4] of 1 fold.

B1: Shp2 (Ptpn11), endogenous in murine DC2.4 cells (natural protein)
chain: MTSRRWFHPNITGVEAENLLLTRGVDGSFLARPSKSNPGDFTLSVRRNGAVTHIKIQNTGDYYDLYGGEKFATLAELVQYYMEHHGQLKEKNGDVIELKYPLNCADPTSERWFHGHLSGKEAEKLLTEKGKHGSFLVRESQSHPGDFVLSVRTGDDKGESNDGKSKVTHVMIRCQELKYDVGGGERFDSLTDLVEHYKKNPMVETLGTVLQLKQPLNTTRINAAEIESRVRELSKLAETTDKVKQGFWEEFETLQQQECKLLYSRKEGQRQENKNKNRYKNILPFDHTRVVLHDGDPNEPVSDYINANIIMPEFETKCNNSKPKKSYIATQGCLQNTVNDFWRMVFQENSRVIVMTTKEVERGKSKCVKYWPDEYALKEYGVMRVRNVKESAAHDYTLRELKLSKVGQGNTERTVWQYHFRTWPDHGVPSDPGGVLDFLEEVHHKQESIVDAGPVVVHCSAGIGRTGTFIVIDILIDIIREKGVDCDIDVPKTIQMVRSQRSGMVQTEAQYRFIYMAVQHYIETLQRRIEEEQKSKRKGHEYTNIKYSLVDQTSGDQSPLPPCTPTPPCAEMREDSARVYENVGLMQQQRSFR
With B1 the negative fold change in peptide counts relative to TgWIP^WT [1] was 39 fold and the negative fold change in peptide counts relative to TgWIP^WT [2] was 3 fold.

B2: Nostrin, endogenous in murine DC2.4 cells (natural protein)
chain: MRDPLTDCSYNKVYKSLKEFAQHGDNFCKQITSVLQQRANLEISYAKGLQKLAVRLSKALQSTKKNCLSTAWAWASESMKSAADLHQKLGKAIELEAIKPTHQVLSMQEKKRKSLDNEVEKTANLVINNWNQQIKAKKKLMMSTKKHEALFHLVESSKQSLTQKEKQKLLNKLKKSTEKLEKEDESYYQKNMAGYSTRLKWESTLENCYKSMLELEKERIQLLCNNLNQYSQHISLFGQTLTTCHTQIHCAISKVDVEKDIQALMEETAILSIENKSELLLADYFEEDPKNPMDKERRKSLLKPKLGRLQRDIEKASRDKEGLERKLKALASSSSFSDAKSQKDMETLMDENSLKLDLLQANSYKLSSVLADLEQRPKPCHPCSTCIFKWKEKEHSHTYVKISRPLLTKRLEKAESKAPAGGQNNPSSSPSGSTVSQASKHLCKALYTFQARQDDELNLEKGDIVTVHEKKEEGWWFGSLKGKRGHFPAAYVEELPPKAGNTATQA
In the case of B2, the negative fold change in peptide counts relative to TgWIP^WT [1] is reported as 1 fold, the negative fold change in peptide counts relative to TgWIP^WT [2] is reported as 6 fold and the negative fold change in peptide counts relative to TgWIP^WT [3] is reported as 5 fold. The negative fold change in peptide counts relative to TgWIP^WT [4] was 3 fold.

B3: Git2, endogenous in murine DC2.4 cells (natural protein)
chain: MSKRLRSSDVCADCNGPDPSWASVNRGTFICDECCSVHRSLGRHISQVRHLKHTAWPPTLLQMVETLYNNGANSIWEHSLLDPASIMSGRRKANPQDKVHPNKAEFIRAKYQMLAFVHRLPCREDDSVTAKDLSKQLHSSVRTGNLETCLRLLSLGAQANFFHPEKGSTPLHVASKAGQILQAELLAVYGADPGTQDSSGKTPVDYARQGGHHELAERLIEIQYELTDRLAFYLCGRKPDHKSGQHFLIPQRADSLDLSELAKAAKKKLQSLSNHLFEELAMDVYDEVDRRETDAVWLATQNHSTLVTETTVVPFLPVNPEYSSTRNQGRQKLARFNAHEFATLVIDILSDAKRRQQGSPLSRSKDNVELILRTVSTQHSTESQDNDQPDYDSVASDEDTDVETRASKANRQKLQTLQSENSSLRRQATASACQVQTGSDHKDTASHSSLKRRPSARGSRPMSMYETGSGQKPYLPMGEASHPEESRTRLQPFPTHIGRSALVTSSSSLPSFPSTLSWSRDESARRASRLEKQNSTPESDYDNTACDPEPDDTGSTRKGRQRSMLWQGDGLLPDTAEPHSVPSPTLPSTEDVIRKTEQITKNIQELLRAAQENKHDSYIPCSERIHVAVTEMAALFPKKPKSDTVRTSLRLLTSSAYRLQSECRKALPGDSSLPTDVQLVTQQVIQCAYDIAKAAKQLVTITTKENSS
B3 showed a negative fold change in peptide counts relative to TgWIP^WT [1] of 3 fold, a negative fold change in peptide counts relative to TgWIP^WT [2] of 2 fold and a negative fold change in peptide counts relative to TgWIP^WT [4] of 2 fold.
